Experimental data taken from paper PMC6731095, “Regulation of Eag1 gating by its intracellular domains” (eLife, 2019).

Assays:
[1] = target: T1, Calmodulin (human, UniProt P0DP24 1-149); assay: cryo-EM structure; Eag1 Δ3–13 and CaM co-expressed and co-purified; 20 mM Tris pH 8, 300 mM KCl, 1 mM CaCl2, 0.05% digitonin; 5 mg/ml; C4 symmetry imposed; two conformations; conditions: both partners purified
T1 construct: Calmodulin, Homo sapiens, Uniprot P0DP24; Calcium (1 mM CaCl2) was present throughout; also called CaM; source: HEK293S GnTI-, infected with BacMam baculovirus together with Eag1 Δ3–13 baculovirus, co-purified with Eag1 Δ3–13

[2] = target: the molecule itself; assay: as above

binding result [1]: binds
B1: Eag1 Δ3–13 (rat Kv10.1/Eag1/Kcnh1, residues 3–13 deleted, C-terminal unstructured region 773-886 removed) (natural protein, UniProt Q63472 1-962, looked up)
chain: MTQNTFLENIVRRSNDTNFVLGNAQIVDWPIVYSNDGFCKLSGYHRAEVMQKSSACSFMYGELTDKDTVEKVRQTFENYEMNSFEILMYKKNRTPVWFFVKIAPIRNEQDKVVLFLCTFSDITAFKQPIEDDSCKGWGKFARLTRALTSSRGVLQQLAPSVQKGENVHKHSRLAEVLQLGSDILPQYKQEAPKTPPHIILHYCVFKTTWDWIILILTFYTAILVPYNVSFKTRQNNVAWLVVDSIVDVIFLVDIVLNFHTTFVGPAGEVISDPKLIRMNYLKTWFVIDLLSCLPYDVINAFENVDEGISSLFSSLKVVRLLRLGRVARKLDHYIEYGAAVLVLLVCVFGLAAHWMACIWYSIGDYEIFDEDTKTIRNNSWLYQLALDIGTPYQFNGSGSGKWEGGPSKNSVYISSLYFTMTSLTSVGFGNIAPSTDIEKIFAVAIMMIGSLLYATIFGNVTTIFQQMYANTNRYHEMLNSVRDFLKLYQVPKGLSERVMDYIVSTWSMSRGIDTEKVLQICPKDMRADICVHLNRKVFKEHPAFRLASDGCLRALAMEFQTVHCAPGDLIYHAGESVDSLCFVVSGSLEVIQDDEVVAILGKGDVFGDVFWKEATLAQSCANVRALTYCDLHVIKRDALQKVLEFYTAFSHSFSRNLILTYNLRKRIVFRKISDVKREEEERMKRKNEAPLILPPDHPVRRLFQRFRQQKEARLAAERGGRDLDDLDVEKGNALTDHTSANHSLVKASVVTVRESPATPVSFYPIPEQTLQATVLEVKHELKEDIKALNAKMTSIEKQLSEILRILMSRGSSQSPQDTCEVSRPQSPESDRDIFGAS
notes: Kv10.1/Eag1/Kcnh1, Rattus norvegicus, Uniprot Q63472; whole channel with residues 3-13 of the PAS loop deleted and the C-terminal unstructured region 773-886 removed; The GFP tag was removed with PreScission protease; also called calmodulin insensitive mutant; not shown: GFP, C-terminal, cleaved; His6, C-terminal, cleaved
stoichiometry N [2]: 4
